Where a chain is given by its changes, count along the chain named. Numbers in names are those of the source. Values belong to the molecule of their own block, whether it stands above or below them.
Tests used:
[1] = Luminescence activity of ZZ-fused KAZ mutants in crude enzyme solutions; type: biochemical; settings: for Relative Luminescence Activity (Imax): ZZ-fused (pCold-ZZ-P-), 1 mM DTT; for Luminescence activity, times higher than that of wild KAZ: coelenterazine (Table 4); for Luminescence activity, fold higher than dnKAZ / Luminescence activity, fold higher than wild KAZ: coelenterazine (Table 9)
Protocol: To express the ZZ-fused KAZ mutants in E. coli, the recombinant plasmid prepared in EXAMPLE 6 was used. Crude enzyme solutions were prepared in the same manner as EXAMPLE 4 using the E. coli BL21 strain (Novagen, Madison, Wis.) as a host cell. The resultant crude enzyme solution, 5 μL, was subjected to SDS-PAGE analysis to confirm expression of the proteins (FIG. 2). In FIG. 2, M and 1 to 18 are the same as described in FIG. 1.
DTT was added to the crude enzyme solution obtained in EXAMPLE 7 at a final concentration of 1 mM and the mixture was allowed to stand in an ice water for more than 5 hours. A luminescence reaction was started by adding 1 μL of the crude enzyme solution to 100 μL of TE containing 1 μg of coelenterazine (manufactured by JNC Corp.). The luminescence activity was determined using a luminometer (manufactured by Atto Inc.: AB2200) for 60 seconds, and the maximum intensity of luminescence (Imax) was shown as relative luminescence activity.
To express the ZZ-fused KAZ mutants in E. coli, the recombinant plasmid constructed in EXAMPLE 16 and pCold-ZZ-P-V44I-KAZ, pCold-ZZ-P-A54I-KAZ, pCold-ZZ-P-Y138I-KAZ prepared in EXAMPLE 6 were used. Crude enzyme solutions were prepared in the same manner as EXAMPLE 7, using the E. coli BL21 strain (Novagen, Madison, Wis.) as a host cell. DTT was added to the crude enzyme solutions at a final concentration of 1 mM. The mixtures were allowed to stand over 5 hours on ice, and luminescence activities were then assayed. The luminescence activities were determined by the method described in EXAMPLE 8. Also, 5 μL of the resultant crude enzyme solutions were subjected to SDS-PAGE analysis to confirm protein expression (FIG. 4). In FIG. 4, M and 1 to 9 are as follows. M: molecular weight size markers; 1: ZZ-P-KAZ; 2: ZZ-P-KAZ-V44I; 3: ZZ-P-KAZ-A54I; 4: ZZ-P-KAZ-Y138I; 5: ZZ-P-KAZ-V44I-A54I; 6: ZZ-P-KAZ-V44I-Y138I; 7: ZZ-P-KAZ-A54I-Y138I; 8: ZZ-P-KAZ-V44I-A54I-Y138I; and 9: ZZ-P-dnKAZ.

[2] = Substrate specificities of KAZ mutants (ZZ-fused, crude enzyme), f-CTZ; type: biochemical; settings: 1 μg substrate; for Relative Luminescence Activity f-CTZ Int.: integrated for 60 seconds; for Relative Luminescence Activity f-CTZ Imax: maximum intensity of luminescence
Protocol: The coelenterazine analogues used for substrate specificity studies were synthesized by the methods described in publications. Specifically, bis-coelenterazine was synthesized by the method described in Nakamura et al. (1997) Tetrahedron Lett. 38: 6405-6406; furimazine by the method described in Hall et al. (2012) ACS Chem. Biol. […]; and, 6h-coelenterazine, f-coelenterazine and 6h-f-coelenterazine by the methods described in Inouye et al (2013) Biochem. Biophys. Res. Commun. 437: 23-28.
DTT was added to the crude enzyme solutions obtained in EXAMPLE 17 at a final concentration of 1 mM and the mixtures were allowed to stand in an ice water for more than 5 hours in the same manner as Example 8. A luminescence reaction was started by the addition of 1 μL each of the crude enzyme solutions to 100 μL of TE containing 1 μg of coelenterazine (manufactured by JNC Corp.) or its analogues. The luminescence activities were determined using a luminometer (manufactured by Atto Inc.: AB2200) for 60 seconds, and the maximum intensity of luminescence (Imax) was shown as relative luminescence activity.

[3] = Table 4, 1 μL crude enzyme solution, 1 μg coelenterazine
[4] = Table 9, crude enzyme solution, coelenterazine
[5] = ZZ-fused, crude enzyme solution

- Relative Luminescence Activity (Imax) [1, 3]: 8.9
- Relative Luminescence Activity (Imax) [1, 4]: 8.4
- Luminescence activity compared with dnKAZ ([1]; ZZ-fused, crude enzyme solution, coelenterazine): comparable to dnKAZ
- Luminescence activity, times higher than that of wild KAZ [1, 5]: 8.9 times
- Relative Luminescence Activity f-CTZ Int. [2]: 4.9
- Relative Luminescence Activity f-CTZ Imax [2]: 8.2
B1: KAZ-A54I: KAZ with single amino acid substitution A54I, SEQ ID NO: 6 (protein)
chain: FTLADFVGDWQQTAGYNQDQVLEQGGLSSLFQALGVSVTPIQKVVLSGENGLKIDIHVIIPYEGLSGFQMGLIEMIFKVVYPVDDHHFKIILHYGTLVIDGVTPNMIDYFGRPYPGIAVFDGKQITVTGTLWNGNKIYDERLINPDGSLLFRVTINGVTGWRLCENILA

- Relative Luminescence Activity (Imax) [1, 3]: 5.9
- Relative Luminescence Activity (Imax) [1, 4]: 7.5
- Luminescence activity, times higher than that of wild KAZ [1, 5]: 5.9 times
- Relative Luminescence Activity f-CTZ Int. [2]: 2.4
- Relative Luminescence Activity f-CTZ Imax [2]: 2.4
B2: KAZ-Y138I: KAZ with single amino acid substitution Y138I, SEQ ID NO: 8 (protein)
chain: B1 chain with I54A, Y138I

- Relative Luminescence Activity (Imax) [1, 3]: 1.0
- Relative Luminescence Activity (Imax) [1, 4]: 1.0
- Relative Luminescence Activity f-CTZ Int. [2]: 0.8
- Relative Luminescence Activity f-CTZ Imax [2]: 0.9
B3: KAZ: wild 19 kDa catalytic protein of Oplophorus luciferase (19kOLase), amino acid sequence SEQ ID NO: 2 (protein, listed as Oplophorus gracilirostris)
chain: B1 chain with I54A

- Relative Luminescence Activity (Imax) [1, 3]: 6.6
- Relative Luminescence Activity (Imax) [1, 4]: 7.2
- Luminescence activity, times higher than that of wild KAZ [1, 5]: 6.6 times
- Relative Luminescence Activity f-CTZ Int. [2]: 2.0
- Relative Luminescence Activity f-CTZ Imax [2]: 2.1
B4: KAZ-V44I: KAZ with single amino acid substitution V44I, SEQ ID NO: 4 (protein)
chain: B1 chain with V44I, I54A

- Relative Luminescence Activity (Imax) [1, 4]: 17.1
- Luminescence activity, fold higher than dnKAZ [1, 5]: 1.8 fold
- Luminescence activity, fold higher than wild KAZ [1, 5]: 17 fold
- Relative Luminescence Activity f-CTZ Int. [2]: 7.4
- Relative Luminescence Activity f-CTZ Imax [2]: 13.3
B5: KAZ-V44I-Y138I: KAZ mutant with two amino acid substitutions V44I and Y138I, SEQ ID NO: 12 (protein)
chain: B1 chain with V44I, I54A, Y138I

- Relative Luminescence Activity (Imax) [1, 4]: 23.1
- Luminescence activity, fold higher than dnKAZ [1, 5]: 2.5 fold
- Luminescence activity, fold higher than wild KAZ [1, 5]: 23 fold
- Relative Luminescence Activity f-CTZ Int. [2]: 9.2
- Relative Luminescence Activity f-CTZ Imax [2]: 19.7
B6: KAZ-A54I-Y138I: KAZ mutant with two amino acid substitutions A54I and Y138I, SEQ ID NO: 14 (protein)
chain: B1 chain with Y138I

- Relative Luminescence Activity (Imax) [1, 4]: 66.7
- Luminescence activity, fold higher than dnKAZ [1, 5]: 7.1 fold
- Luminescence activity, fold higher than wild KAZ [1, 5]: 67 fold
- Relative Luminescence Activity f-CTZ Int. [2]: 9.5
- Relative Luminescence Activity f-CTZ Imax [2]: 43.8
B7: KAZ-V44I-A54I-Y138I: KAZ mutant with three amino acid substitutions V44I, A54I and Y138I, SEQ ID NO: 16 (protein)
chain: B1 chain with V44I, Y138I

- Relative Luminescence Activity (Imax) [1, 4]: 15.3
- Luminescence activity, fold higher than dnKAZ [1, 5]: 1.6 fold
- Luminescence activity, fold higher than wild KAZ [1, 5]: 15 fold
- Relative Luminescence Activity f-CTZ Int. [2]: 5.2
- Relative Luminescence Activity f-CTZ Imax [2]: 11.3
B8: KAZ-V44I-A54I: KAZ mutant with two amino acid substitutions V44I and A54I, SEQ ID NO: 10 (protein)
chain: B1 chain with V44I
